# From patent US7090834B1, “Vascular endothelial cell growth factor variants and uses thereof” (Genentech, Inc., priority 1999, dated 2006)
# Changes are numbered by the printed parent chain. Where two headings read alike, the source gives them in different places.
# B1: LK-VRB-2f (ligand, human, UniProt P15692-4 27-191, looked up)
# chain: APMAEGGGQNHHEVVKFMDVYQRSYCHPIETLVDIFQEYPDEIEYIFKPSCVPLMRCGGCCNSEMRECVPTEESNITMQIMRIKPHQGQHIGEMSFLQHNKCECRPKKDRARQENPCGPCSERRKHLFVQDPQTCKCSCKNTDSRCKARQLELNERTCRCDKPRR
# B2: LK-VRB-8s* (ligand)
# chain: APMAEGGGQNHHEVVKFMDVLQRSYCHPIETLVDIFQEYPDEIEYIFKPSCVPLMRCGGCCNSEMRECVPTEESNITMQIMRIKPHQGQHIGEMSFLQHNKCECRPKKD
# B3: LK-VRB-2s* (ligand, human, UniProt P15692-4 27-135, looked up)
# chain: B2 chain with L21Y
# B4: LK-VRB-26s (ligand, human, UniProt P15692-4 27-135, looked up)
# chain: B2 chain with M18E, Q22R, Y25S, S63D
# B5: LK-VRB-9s (ligand, human, UniProt P15692-4 27-135, looked up)
# chain: B2 chain with L21Y, Q22R
# B6: LK-VRB-7s* (ligand, human, UniProt P15692-4 27-135, looked up)
# chain: B2 chain with M18E, L21Y
# B7: LK-VRB-3s (ligand, human, UniProt P15692-4 27-135, looked up)
# chain: B2 chain with F17I, M18E, L21F, Q22K, Y25S, S63D, M65G, R66L
# B8: LK-VRB-25s (ligand, human, UniProt P15692-4 27-135, looked up)
# chain: B2 chain with M18E, Q22R, Y25S, M65G
# B9: native VEGF (8-109) (ligand, human, UniProt P15692 214-315, looked up)
# chain: GQNHHEVVKFMDVYQRSYCHPIETLVDIFQEYPDEIEYIFKPSCVPLMRCGGCCNDEGLECVPTEESNITMQIMRIKPHQGQHIGEMSFLQHNKCECRPKKD
# notes: Homodimer
# Columns and labels:
# [1] = molecular target: Flt-1 receptor; experiment: RIA assay, binding to FLT-1 receptor
# Method: Various assays were conducted to examine the properties and biological activities of the I43A/I46A/Q79A/I83A Flt-sel variant. For example, quantitative binding measurements were carried out using a soluble radio-immuno receptor-binding assay (RIA), as described in Example 6 above.
# Target sequence in this assay (P17948 27-331 limits assumed): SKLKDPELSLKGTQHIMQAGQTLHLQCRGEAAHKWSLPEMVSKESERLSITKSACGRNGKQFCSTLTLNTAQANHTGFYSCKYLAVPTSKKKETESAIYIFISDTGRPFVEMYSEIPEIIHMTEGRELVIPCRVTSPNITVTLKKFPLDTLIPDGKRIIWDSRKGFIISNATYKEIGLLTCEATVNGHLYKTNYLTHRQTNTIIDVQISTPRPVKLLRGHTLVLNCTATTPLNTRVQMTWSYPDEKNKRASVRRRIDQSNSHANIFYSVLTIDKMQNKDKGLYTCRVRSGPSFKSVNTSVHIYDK
# [2] = system: PLC-gamma in HUVEC cells; experiment: PLC-gamma tyrosine phosphorylation after immunoprecipitation; format: cell-based, human; settings: 20 ng/ml, 5 minutes, FIG. 13A
# Method: In order to determine which VEGF receptor(s) are involved in PLC-gamma activation in primary endothelial cells, HUVEC cells were treated with native VEGF or VEGF receptor-selective variants and PLC-gamma phosphorylation was assessed after immunoprecipitation.
# Passage 4–7 HUVEC cells (Cell Systems, Kirkland, Wash.) were grown in Cell System's complete medium (AZ0-500) with 10% fetal calf serum and growth factors on gelatin-coated dishes and made quiescent by 14 hour starvation in 0.2% serum. […] The cells were then lysed in 0.5–1 ml RIPA buffer containing 0.1 mM sodium orthovanadate, 5 mM para-nitrophenylphosphate, 10 mM sodium fluoride, 0.5 micromolar okadaic acid and a protease inhibitor cocktail (Roche MB 1836145). PLC-gamma was then immunoprecipitated from whole cell lysates using monoclonal antibodies (Upstate Biotechnology) and analyzed for tyrosine phosphorylation (FIG. 13A) or lysates were immunoprecipitated with monoclonal antibodies against p85 PI 3′-kinase (purchased from Transduction Labs (P13020) and Neomarkers (MS424-P)) and tested for phosphotyrosine using phosphotyrosine antibodies PY20 or E120H (Transduction Labs) (FIG. 13B). Immunoprecipitation was conducted as follows. Protein A/G beads (Pierce) were blocked for nonspecific protein binding in 50 mM HEPES pH 7.2, 0.1% TX-100, 150 mM NaCl and 1 mg/ml ovalbumin for 30 minutes. Antibodies were precoupled in the same buffer for 1 hour at 4° C. with head over end rotation and beads were washed 3 times in lysis buffer. Beads were added to the lysates and rotated overnight. Beads were washed sequentially in 50 mM Tris pH 7.6, 150 mM NaCl, 1% TX-100, 1 mM CaCl2; 50 mM Tris pH 7.6, 500 mM NaCl, 0.1% TX-100, 1 mM CaCl2 and 50 mM Tris pH 7.6, 150 mM NaCl, 0.05% TX-100, 1 mM CaCl2. Beads were then resuspended in 2× sample buffer and boiled. Supernatants were applied directly to 4–12% Tris-Glycine gradient gels (Novex).
# [3] = molecular target: KDR receptor on HUVEC cells (human, UniProt P35968 20-1356); experiment: cell-based or functional assay
# [4] = molecular target: KDR receptor (Homo sapiens, UniProt P35968); experiment: KDR receptor binding ELISA (inhibition of biotinylated native VEGF (8–109) binding); settings: second figure of the cell, variant midpoint concentration divided by that of native VEGF
# Method: (§1) Receptor binding assays were performed in 96-well immunoplates (Maxisorp, Nunc-Immunoplate, Nalge Nunc International, Rochester, N.Y.). Each well was coated with 100 μl of a solution containing 8 μg/ml of a monoclonal antibody to KDR known as MAKD5 (Genentech, South San Francisco, Calif.) in 50 mM carbonate buffer at pH 9.6 and incubated at 4° C. overnight. The supernatant was discarded, the wells were washed three times in washing buffer (0.05% Tween 20 in PBS), and the plate was blocked (150 μl per well) with block buffer (0.5% BSA, 0.01% thimerosal in PBS) at room temperature for one hour. The supernatant was discarded, and the wells were washed.
# (§2) Aliquots of this mixture (100 μl) were added to the precoated microtiter wells and the plate was incubated for 1 hour at room temperature. […] The wells were then incubated with 3, 3′, 5,5′-tetramethyl benzidine (0.2 gram/liter; Kirkegaard & Perry Laboratories, Gaithersburg, Md.) for about 10 minutes at room temperature. Absorbance was read at 450 nm on a Vmax plate reader (Molecular Devices, Menlo Park, Calif.).
# (§3) Titration curves were fit with a four-parameter nonlinear regression curve-fitting program (KaleidaGraph, Synergy Software, Reading, Pa.).
# [5] = molecular target: Flt-1 receptor; experiment: Flt-1 receptor binding ELISA (inhibition of biotinylated native VEGF binding to Flt-IgG); settings: for Relative Binding Affinity, FLT-1 Receptor: concentration at midpoint absorbance: first figure of the cell, Flt-IgG; for Relative Binding Affinity, FLT-1 Receptor: ratio to native VEGF (8–109): second figure of the cell, fold less binding than native VEGF
# Method: (§4) Receptor binding assays were performed in 96-well immunoplates (Maxisorp, Nunc-Immunoplate, Nalge Nunc International, Rochester, N.Y.). Each well was coated with 100 μl of a solution containing 2 μg/ml of rabbit F(ab′)2 to human IgG Fc (Jackson ImmunoResearch, West Grove, Pa.) in 50 mM carbonate buffer at pH 9.6 and incubated at 4° C. overnight. The supernatant was then discarded, the wells were washed three times in washing buffer (0.05% Tween 20 in PBS), and the plate was blocked (150 μl per well) with block buffer (0.5% BSA, 0.01% thimerosal in PBS) at room temperature for one hour. The supernatant was discarded, and the wells were washed.
# (§5) The wells were filled with 100 μl of a solution containing Flt-IgG (a chimeric Flt-human Fc molecule) at 50 ng/ml in assay buffer (0.5% BSA, 0.05% Tween 20 in PBS). The wells were incubated at room temperature for 1 hour and then washed three times in wash buffer (0.05% Tween 20 in PBS).
# as §2, with “the” for “this”, “2 hours” for “1 hour”, “g/liter,” for “gram/liter;”
# as §3
# Target sequence in this assay (P17948 27-327 limits assumed): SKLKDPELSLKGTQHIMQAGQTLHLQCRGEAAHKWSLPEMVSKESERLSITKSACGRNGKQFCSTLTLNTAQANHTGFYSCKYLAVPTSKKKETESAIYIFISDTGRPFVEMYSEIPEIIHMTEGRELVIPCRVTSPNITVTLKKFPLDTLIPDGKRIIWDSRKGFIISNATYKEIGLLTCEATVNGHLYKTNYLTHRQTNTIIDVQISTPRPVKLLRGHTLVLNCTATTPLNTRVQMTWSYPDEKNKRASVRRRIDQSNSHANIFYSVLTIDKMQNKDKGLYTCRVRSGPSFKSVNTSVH
# [6] = molecular target: T1, Flt-IgG (UniProt P17948 27-758, limits assumed); experiment: competition ELISA vs biotinylated native VEGF for Flt-IgG
# T1 construct: also called chimeric Flt-human Fc molecule; not shown: human IgG Fc
# Method: as §4, with “F(ab')2” for “F(ab′)2”
# as §5
# as §2, with “the” for “this”, “2 hours” for “1 hour”, “3', 5,5'-tetramethyl” for “3′, 5,5′-tetramethyl”, “g/liter,” for “gram/liter;”
# [7] = molecular target: T2, KDR (1-3) (UniProt P35968 20-327, limits assumed); experiment: competition ELISA vs biotinylated native VEGF (8-109) for KDR (1-3)
# T2 construct: domain: domains 1 to 3; Genentech reagent; also called KDR (1-3) monomer; domains 1 to 3 of KDR
# Method: as §1
# as §2, with “3', 5,5'-tetramethyl” for “3′, 5,5′-tetramethyl”
# as §3
# [8] = molecular target: gD-KDR receptor on CHO cells (UniProt P35968 20-1356); experiment: cell-based or functional assay
# T1 sequence (P17948 27-758 limits assumed): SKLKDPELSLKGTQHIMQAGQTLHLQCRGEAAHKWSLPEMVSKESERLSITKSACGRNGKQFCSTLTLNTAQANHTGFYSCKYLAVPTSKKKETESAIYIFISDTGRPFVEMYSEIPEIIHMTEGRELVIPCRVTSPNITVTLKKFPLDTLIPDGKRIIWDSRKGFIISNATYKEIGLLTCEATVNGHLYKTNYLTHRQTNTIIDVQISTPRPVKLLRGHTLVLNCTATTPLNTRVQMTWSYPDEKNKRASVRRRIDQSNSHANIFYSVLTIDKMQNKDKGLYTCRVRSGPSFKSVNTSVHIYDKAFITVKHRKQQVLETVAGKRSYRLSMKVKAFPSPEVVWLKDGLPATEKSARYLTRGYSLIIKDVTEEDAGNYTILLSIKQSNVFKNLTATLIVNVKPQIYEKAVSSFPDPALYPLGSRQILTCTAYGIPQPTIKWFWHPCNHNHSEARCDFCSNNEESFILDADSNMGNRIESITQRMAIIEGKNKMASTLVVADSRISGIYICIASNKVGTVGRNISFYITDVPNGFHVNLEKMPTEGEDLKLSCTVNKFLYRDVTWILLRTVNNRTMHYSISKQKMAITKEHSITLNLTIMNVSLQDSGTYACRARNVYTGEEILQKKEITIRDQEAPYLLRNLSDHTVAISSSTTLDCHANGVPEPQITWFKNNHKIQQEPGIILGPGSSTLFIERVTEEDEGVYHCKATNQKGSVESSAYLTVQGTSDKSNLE
# T2 sequence (P35968 20-327 limits assumed): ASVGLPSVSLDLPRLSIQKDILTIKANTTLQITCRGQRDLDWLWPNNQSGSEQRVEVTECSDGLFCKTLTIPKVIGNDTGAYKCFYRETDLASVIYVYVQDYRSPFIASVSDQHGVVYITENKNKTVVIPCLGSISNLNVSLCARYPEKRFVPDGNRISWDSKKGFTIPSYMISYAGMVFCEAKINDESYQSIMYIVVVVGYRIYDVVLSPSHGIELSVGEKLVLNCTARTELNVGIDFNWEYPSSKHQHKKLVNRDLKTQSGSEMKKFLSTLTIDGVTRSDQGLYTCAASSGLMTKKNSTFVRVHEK
# KDR receptor, sequence (P35968 20-327 limits assumed): as above
# KDR receptor on HUVEC cells, sequence (P35968 20-1356): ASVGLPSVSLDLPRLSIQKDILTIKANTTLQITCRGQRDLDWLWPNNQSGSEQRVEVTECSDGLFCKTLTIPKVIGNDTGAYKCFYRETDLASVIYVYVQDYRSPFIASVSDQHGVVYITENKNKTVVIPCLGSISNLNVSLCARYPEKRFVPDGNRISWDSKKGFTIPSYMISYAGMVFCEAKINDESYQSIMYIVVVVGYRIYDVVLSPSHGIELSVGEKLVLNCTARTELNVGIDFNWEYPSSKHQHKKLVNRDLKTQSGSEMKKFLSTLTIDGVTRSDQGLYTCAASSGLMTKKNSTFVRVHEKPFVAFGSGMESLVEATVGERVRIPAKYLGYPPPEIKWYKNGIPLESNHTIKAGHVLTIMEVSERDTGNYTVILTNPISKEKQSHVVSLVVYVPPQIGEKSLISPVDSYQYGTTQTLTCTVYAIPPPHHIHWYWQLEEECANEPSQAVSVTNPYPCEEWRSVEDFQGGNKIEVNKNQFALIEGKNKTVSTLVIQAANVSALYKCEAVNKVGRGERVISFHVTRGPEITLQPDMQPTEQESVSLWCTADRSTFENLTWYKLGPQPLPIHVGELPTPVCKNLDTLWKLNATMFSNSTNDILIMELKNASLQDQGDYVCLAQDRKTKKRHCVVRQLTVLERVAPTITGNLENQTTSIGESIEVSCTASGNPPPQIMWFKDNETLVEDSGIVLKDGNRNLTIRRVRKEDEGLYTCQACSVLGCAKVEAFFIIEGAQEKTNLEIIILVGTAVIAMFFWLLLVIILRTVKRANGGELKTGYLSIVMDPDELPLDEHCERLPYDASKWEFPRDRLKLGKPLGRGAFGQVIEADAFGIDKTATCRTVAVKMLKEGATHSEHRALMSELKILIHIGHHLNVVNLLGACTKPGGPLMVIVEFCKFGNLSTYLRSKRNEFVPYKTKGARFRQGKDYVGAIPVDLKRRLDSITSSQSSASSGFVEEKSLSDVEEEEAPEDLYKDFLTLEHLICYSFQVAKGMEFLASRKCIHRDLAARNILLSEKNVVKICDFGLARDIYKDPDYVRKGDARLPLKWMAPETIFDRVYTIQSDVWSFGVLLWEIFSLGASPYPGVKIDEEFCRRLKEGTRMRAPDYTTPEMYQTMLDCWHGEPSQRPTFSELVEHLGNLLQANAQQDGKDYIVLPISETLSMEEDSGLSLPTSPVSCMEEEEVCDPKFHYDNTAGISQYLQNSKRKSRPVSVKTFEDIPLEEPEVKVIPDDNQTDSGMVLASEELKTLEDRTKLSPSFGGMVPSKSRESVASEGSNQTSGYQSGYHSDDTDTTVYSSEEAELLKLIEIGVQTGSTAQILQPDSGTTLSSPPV
molecule,measurement,setting,value
Native VEGF 165: 165-amino acid native vascular endothelial cell growth factor [reference compound],Kd,"[1]; Table 6, read-out: Binding affinity, FLT-1 Receptor (RIA), value in parentheses",0.037 nM
same,PLC-gamma phosphorylation,[2],able to stimulate PLC-gamma phosphorylation to a similar extent
Native VEGF (8–109): truncated native VEGF comprising amino acids 8 to 109 of the 165-amino acid vascular endothelial cell growth factor [reference compound],Kd,"[1]; Example 8, FIG. 8B, read-out: affinity for Flt-1 (RIA)",0.4 nM
B1,"Endothelial Cell Proliferation Activity (HUVEC, 3H-thymidine)",[3],0.1 ratio to native VEGF (8-109)
B2,"Endothelial Cell Proliferation Activity (HUVEC, 3H-thymidine)",[3],0.5 nM
same,"Endothelial Cell Proliferation Activity (HUVEC, 3H-thymidine) (ratio to native VEGF (8-109))",[3],1
same,"Relative Binding Affinity, KDR Receptor: ratio to native VEGF (8–109)",[4],0.5 nM/0.5
same,"Relative Binding Affinity, FLT-1 Receptor: concentration at midpoint absorbance",[5],beyond the sensitivity of the ELISA assay
same,"Relative Binding Affinity, FLT-1 Receptor: ratio to native VEGF (8–109)",[5],/>21000
same,relative binding affinity (ratio to native VEGF (8-109)),[6],> 21000 ratio
same,relative binding affinity (ratio to native VEGF (8-109)),[7],0.5 ratio
B3,"Endothelial Cell Proliferation Activity (HUVEC, 3H-thymidine)",[3],0.1 ratio to native VEGF (8-109)
B4,"Relative Binding Affinity, KDR Receptor: ratio to native VEGF (8–109)",[4],23 nM/23
same,"Relative Binding Affinity, FLT-1 Receptor: ratio to native VEGF (8–109)",[5],/>25000
same,relative binding affinity (ratio to native VEGF (8-109)),[7],23 ratio
B5,"Relative Binding Affinity, KDR Receptor: ratio to native VEGF (8–109)",[4],0.5 nM/0.5
same,"Relative Binding Affinity, FLT-1 Receptor: ratio to native VEGF (8–109)",[5],/300
same,relative binding affinity (ratio to native VEGF (8-109)),[6],300 ratio
same,relative binding affinity (ratio to native VEGF (8-109)),[7],0.5 ratio
B6,"Endothelial Cell Proliferation Activity (HUVEC, 3H-thymidine)",[3],1 ratio to native VEGF (8-109)
same,"Relative Binding Affinity, KDR Receptor: ratio to native VEGF (8–109)",[4],1 nM/1
same,"Relative Binding Affinity, FLT-1 Receptor: concentration at midpoint absorbance",[5],beyond the sensitivity of the ELISA assay
same,"Relative Binding Affinity, FLT-1 Receptor: ratio to native VEGF (8–109)",[5],/>15000
same,relative binding affinity (ratio to native VEGF (8-109)),[6],> 15000 ratio
same,relative binding affinity (ratio to native VEGF (8-109)),[7],1 ratio
B7,Phosphorylation-Inducing Activity (KIRA assay),[8],1 ratio to native VEGF (8-109)
same,relative binding affinity (ratio to native VEGF (8-109)),[6],400 ratio
same,relative binding affinity (ratio to native VEGF (8-109)),[7],1 ratio
B8,"Relative Binding Affinity, KDR Receptor: ratio to native VEGF (8–109)",[4],4 nM/4
same,"Relative Binding Affinity, FLT-1 Receptor: ratio to native VEGF (8–109)",[5],/>12000
same,relative binding affinity (ratio to native VEGF (8-109)),[7],4 ratio
B9,Phosphorylation-Inducing Activity (KIRA assay),[8],2 nM
same,"Endothelial Cell Proliferation Activity (HUVEC, 3H-thymidine)",[3],0.5 nM
same,IC50,[6],0.42 nM
